We go through 4 molecules from patent US20120264231A1, “ASSAY FOR ORAI CALCIUM CHANNEL REGULATORS” (IMMUNE DISEASE INSTITUTE, INC., priority 2009, published 2012).

In the assay the target is ORAI1 (Homo sapiens, UniProt Q96D31). As to the kind of experiment: Fura-2 Ca^2+ flux assay, sec6-4 secretory vesicles with ORAI1. The class given is biochemical. Details: the ORAI functional fragment is ORAI1 (65-301), ORAI1 (65-87), or full length ORAI1; made in house; host or cells: S. cerevisiae NY17 (sec6-4), isolated secretory vesicles, vector pBEVY-GU. The protocol: It was next asked whether STIM-ORAI protein-protein interaction is sufficient to open the ORAI Ca^2+ channel. Vesicles obtained from S cerevisiae expressing ORAI were incubated under conditions where Fura-2 was the principal Ca^2+ buffer in the extravesicular solution in order to monitor Ca^2+ efflux (Meyer, T., et al., Biochemistry 29, 32-37 (1990)).
ORAI1, sequence (Q96D31 2-301): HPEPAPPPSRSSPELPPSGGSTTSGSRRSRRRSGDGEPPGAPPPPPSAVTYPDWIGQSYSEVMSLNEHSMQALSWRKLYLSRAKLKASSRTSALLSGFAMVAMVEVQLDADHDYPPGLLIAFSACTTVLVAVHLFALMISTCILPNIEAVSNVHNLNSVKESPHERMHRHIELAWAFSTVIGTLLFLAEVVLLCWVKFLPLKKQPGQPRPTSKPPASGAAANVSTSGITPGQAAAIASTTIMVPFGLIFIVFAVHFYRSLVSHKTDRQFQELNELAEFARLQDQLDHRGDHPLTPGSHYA
Vesicles carrying ORAI 1 were isolated from S cerevisiae strain NY1 7 according to a standard protocol (Coury, L. A., et al., Methods Enzymol 306, 169-186 (1999); Nakamoto, R. K., et al., J Biol Chem 266, 7940-7949 (1991)). Efflux of Ca^2+ elicited by STIM1^CT fragments was detected by suspending the vesicles in a buffer containing Fura-2 as principal Ca^2+ buffer, and monitoring the Fura-2 fluorescence excitation spectrum (Meyer, T., et al., Biochemistry 29, 32-37 (1990)). As a complementary approach, ORAI 1 was coexpressed with a Ca^2+ sensor cameleon D3 cpV or cameleon D4 cpV53 that was targeted to the vesicles, and changes in intravesicular [Ca^2+] were detected as changes in FRET between CFP and YFP of the sensor.
S cerevisiae strain NY17 featuring the temperature-sensitive sec6-4 mutation was used for protein expression and purification of secretory vesicles as described (Nakamoto, R. K., et al., J Biol Chem 266, 7940-7949 (1991); Coury, L. A., et al., Methods Enzymol 306, 169-186 (1999)). Cells were grown to midlog phase at 25° C. in uracil-deficient synthetic complete medium containing glucose, which was subsequently exchanged for galactose to induce transgene expression over a period of 8 hours. The temperature was then switched to 37° C. for 3 hours to force intracellular accumulation of secretory vesicles. Cells were collected by centrifugation at 4,000×g for 5 min at 4° C., washed once in ice-cold water, resuspended at a concentration of 50-60 OD600 units/mL in 10 mM DTT, 100 mM Tris pH 9.4, and shaken gently at room temperature for 10 min. Cells were pelleted and resuspended at 50-60 OD600 units/mL in spheroplast buffer (1.4 M sorbitol, 50 mM K2HPO4 pH 7.5, 10 mM NaN3, 40 mM β-mercaptoethanol) containing Zymolyase 20T (50 units per g of yeast wet weight) and incubated for up to 1 h at 37° C. Spheroplasts were harvested at 3,000×g for 5 min at 4° C., resuspended in spheroplast buffer containing 10 mM MgCl2 and 1 mg/ml Concanavalin A at a density corresponding to 50 OD600 units/mL of the starting culture, and gently shaken at 4° C. for 15 min. […] Myc-tagged ORAI1 was detected in Western blots using the murine anti-Myc monoclonal antibody 9E10. […]

Setting [1] is: STIM 1 cytoplasmic fragments 2 μM.

Regarding “STIM1^CT: cytoplasmic region of STIM1, mouse residues 233-685, His-tagged recombinant protein expressed in E coli”, the “Ca^2+ efflux from vesicles with ORAI (Fura-2 excitation spectrum)” value (“Ca^2+ efflux from vesicles with ORAI” for short) under setting [1] is reported as “elicited efflux of Ca^2+”.

With “STIM1 (233-463): truncated mouse STIM1 cytoplasmic fragment, residues 233-463, His-tagged recombinant protein”, under setting [1], the “Ca^2+ efflux from vesicles with ORAI” value is given as “had little effect”. In the case of `C[C@H](CCC(=O)O)C[C@H](C)C[C@H](C)C(=O)/C=C(\O)[C@H](C)C[C@H](C)C/C=C/[C@@H](C)[C@@H](O)[C@@H](C)[C@@H](O)C[C@@H]1CC[C@@](C)([C@H]2CC[C@@](C)([C@@H](C)O)O2)O1` [ionomycin, reference compound], the “Ca^2+ efflux from vesicles with ORAI” value (ionomycin 20 μM) is “release of Ca^2+ to the extravesicular solution”. Regarding “STIM1 (233-498): truncated mouse STIM1 cytoplasmic fragment, residues 233-498, His-tagged recombinant protein”, the “Ca^2+ efflux from vesicles with ORAI” value under setting [1] is given as “elicited efflux of Ca^2+”.
